{"source": "patent US8821862B2", "about": "“Soluble β-N-acetylglucosaminidase based antibiofilm compositions and uses thereof” (Kane Biotech Inc., priority 2002, dated 2014)", "molecules": {"B1": {"name": "DispersinB™: 381 amino acid soluble β-N-acetylglucosaminidase encoded by dspB of A. actinomycetemcomitans; mature polypeptide SEQ ID NO:11 (protein)", "chain": "NCCVKGNSIYPQKTSTKQTGLMLDIARHFYSPEVIKSFIDTISLSGGNFLHLHFSDHENYAIESHLLNQRAENAVQGKDGIYINPYTGKPFLSYRQLDDIKAYAKAKGIELIPELDSPNHMTAIFKLVQKDRGVKYLQGLKSRQVDDEIDITNADSITFMQSLMSEVIDIFGDTSQHFHIGGDEFGYSVESNHEFITYANKLSYFLEKKGLKTRMWNDGLIKNTFEQINPNIEITYWSYDGDTQDKNEAAERRDMRVSLPELLAKGFTVLNYNSYYLYIVPKASPTFSQDAAFAAKDVIKNWDLGVWDGRNTKNRVQNTHEIAGAALSIWGEDAKALKDETIQKNTKSLLEAVIHKTNGDE", "modifications": "Actinobacillus actinomycetemcomitans"}}, "key": {"S. epidermidis": {"system": "S. epidermidis", "experiment": "In vitro microplate growth and biofilm formation assay (crystal violet)", "format": "cell-based, Staphylococcus epidermidis", "conditions": "DispersinB at different concentrations, TSB, 37° C., 24 hours", "procedure": "An overnight culture of S. epidermidis in Tryptic Soy Broth (TSB) was used as inoculum. Bacteria were grown in TSB on a 96-well microtiterplate in the absence and presence of each compound (DispersinB™ or TCSN) at different concentrations separately and together (DispersinB™+TCSN). Concentrations of DispersinB™ included 25 ng/ml, 50 ng/ml, and 100 ng/ml. Concentrations of TCSN included 25 μg/ml, 50 μg/ml, and 100 μg/ml. The plate was incubated at 37° C. for 24 hours. The growth and biofilm was measured as explained in Example 1.\nThe experiment was performed as explained in Example 1.\nAn in vitro microtiter assay was performed to determine the effect of DispersinB™ wound gel on the growth and biofilm formation of Staphylococcus epidermidis. S. epidermidis biofilm was grown in tryptic soy broth (TSB). S. epidermidis was grown in 96-well microtiter plate in the absence and presence of DispersinB™ wound gel at different concentrations. The plate was incubated at 37° C. for 24 hours.\nIn vitro microplate assay was performed to determine the synergistic effect of DispersinB™ and triclosan (an antimicrobial agent) on the growth and biofilm formation of S. epidermidis. Overnight culture of S. epidermidis in Tryptic Soy Broth (TSB) was used as inoculum. […]"}, "S. aureus": {"system": "S. aureus", "experiment": "In vitro microplate biofilm formation assay (crystal violet)", "format": "cell-based, Staphylococcus aureus", "conditions": "DispersinB at different concentrations, TSB, 37° C., 24 hours", "quoted_text": "(§1) An in vitro microplate assay was performed to determine the effect of DispersinB™ on the growth and biofilm formation of E. coli, S. epidermidis, and S. aureus. E. coli biofilm was grown in colony forming antigen (CFA) medium. […] S. epidermidis and S. aureus biofilm was grown in tryptic soy broth (TSB). Bacteria were separately grown in 96-well microtiterplate in the absence and presence of DispersinB™ at different concentrations. The E. coli plate was incubated at 26° C. for 24 hours. The S. epidermidis and S. aureus biofilm plates were incubated at 37° C. for 24 hours. Growth of planktonic cells based on the absorbance at 600 nm was determined using Labsystems Multiskan Ascent microplate reader. Biofilm was measured by discarding the medium; rinsing the wells with water (three times), and staining bound cells with crystal violet. The dye was solubilized with 33% acetic acid, and absorbance at 630 nm was determined using a microtiter plate reader."}, "E. coli": {"system": "E. coli", "experiment": "In vitro microplate biofilm formation assay (crystal violet)", "format": "cell-based, Escherichia coli", "conditions": "DispersinB at different concentrations, CFA medium, 26° C., 24 hours", "quoted_text": "as §1"}, "[1]": {"system": "A. actinomycetemcomitans CU1000 biofilms", "experiment": "Biofilm killing assay", "format": "cell-based", "conditions": "DispersinB alone, 20 μg/mL", "procedure": "Biofilm Killing Assay. […] Tubes were vortexed for 10 s, and 20 μL aliquots of the detached biofilms were transferred to the wells of a flat-bottomed 96-well microtiter plate containing 180 μL of fresh broth. Five serial dilutions (20 μL into 180 μL) were performed directly into adjacent wells. Plates were incubated for 48 h and then rinsed and stained with crystal violet as described above. Wells containing 30-300 biofilm colonies were photographed under a dissecting microscope and counted. In some assays, biofilms were pre-treated with 1 mL of DispersinB™ (20 μg/mL in PBS) for 5 min prior to the SDS treatment. In these assays, a 100 μL quantity of SDS in PBS (at 10 times the test concentration) was added directly to the DispersinB™-treated cell suspension and mixed. After 5 min, tubes were vortexed briefly, and 20-μL aliquots of culture were enumerated as described above. Killing assays were performed in duplicate tubes on at least 5 separate occasions, with similar results."}, "[2]": {"system": "E. coli csrA luxCDABE kan^r biofilm", "experiment": "Bioluminescent E. coli biofilm on filter disc, luminescence", "format": "cell-based", "conditions": "for luminescence, Day 1 / luminescence, Day 2 / luminescence, Day 3 / luminescence, Day 4: DispersinB 50 μg/ml", "description": "E. coli TRMG1655 [csrA::kan^r] strain was transformed with transposon, mini-TN5 luxCDABE::kan^r for luciferase expression (Kadurugamuwa et al., 2005, Infect. Immun. 73: 3878-3887), and the operon integrated into the chromosome. Integration was confirmed by amplification of the genomic DNA upstream of the transposon by inverse PCR using Ssp1-digested genomic DNA. Primers UTCF1 (5′-[…]-3′; SEQ ID NO:13) and UTCR (5′-[…]-3′; SEQ ID NO:14) were used to amplify the upstream region using Pfu DNA polymerase (Sigma-Oligosynthesis, St. Louis, Mo.). The lux operon is derived from Photorhabdus luminescence and was obtained from Xenogen Inc. (Alameda, Calif.). These bioluminescent bacteria allow real-time monitoring by noninvasive imaging of biofilms, either in vitro or in vivo.\nA cell suspension of 10^6 E. coli csrA luxCDABE kan^r was used to inoculate a filter disc (Millipore Corporation, Billerica, Mass.). The E. coli biofilm was maintained in minimal media (M9) supplemented with 50 μg/ml kanamycin and 100 μg/ml ampicillin. The media were changed every day by transferring the disc to new plate. After 3 days, chemoluminescence activity of the established biofilm was measured using a Typhoon™ imaging scanner (General Electric Healthcare Life Sciences) and ImageQuant TL software (Amersham Biosciences, Sunnyvale, Calif.). The measure luminescence directly correlates with the metabolic activity of the biofilm.\nLuminescence was measured at day 0 and was used as the control. Following the measurement of luminescence at day 0, each disc was treated with one of the following—media alone (control) and media containing:\nLuminescence was measured every 24 hours followed by replacing the media. Thus, every 24 h following the measurement of the luminescence, 10 μl each of the different solutions was applied to the plate and the biofilm disc was placed on top of the drop everyday. The quantitative analysis of the biofilm luminescence from each day was used to compare the biofilm activity after treatment with the different treatments.\nThe experiments were repeated using the same E. coli strain csrA luxCDABE kan^r and protocols. Biofilm discs were pulsed with media alone (control) and media containing: […]"}, "[3]": {"conditions": "Table 3, phage 10^8, treatment renewed every 24 h"}, "[4]": {"conditions": "Table 4, repeated experiment, BisEDT 50 μg/ml, phage cocktail 10^8"}}}
{"molecule": "B1", "values": [{"measurement": "biofilm formation", "setting": "S. epidermidis", "result": "appreciable effect"}, {"measurement": "biofilm formation", "setting": "S. aureus", "result": "appreciable effect"}, {"measurement": "biofilm formation", "setting": "E. coli", "result": "appreciable effect"}, {"measurement": "killing of A. actinomycetemcomitans biofilms", "setting": "[1]; 5 min or 30 min", "result": "did not significantly kill"}, {"measurement": "reduction in the number of CFU/tube", "setting": "[1]; 30 min, versus mock-treated controls", "result": "little or no reduction"}, {"measurement": "luminescence, Day 0", "setting": "[2]; Table 3, Day 0, measured before treatment (baseline)", "result": 948.72, "unit": "RLU"}, {"measurement": "luminescence, Day 1", "setting": "[2]; [3]", "result": 1167.19, "unit": "RLU"}, {"measurement": "luminescence, Day 2", "setting": "[2]; [3]", "result": 1297.42, "unit": "RLU"}, {"measurement": "luminescence, Day 3", "setting": "[2]; [3]", "result": 1487.76, "unit": "RLU"}, {"measurement": "luminescence, Day 4", "setting": "[2]; [3]", "result": 1550.01, "unit": "RLU"}, {"measurement": "luminescence, Day 1", "setting": "[2]; [4]", "result": 2137.73, "unit": "RLU"}, {"measurement": "luminescence, Day 2", "setting": "[2]; [4]", "result": 1911.9, "unit": "RLU"}, {"measurement": "luminescence, Day 3", "setting": "[2]; [4]", "result": 2982.02, "unit": "RLU"}, {"measurement": "luminescence, Day 4", "setting": "[2]; [4]", "result": 2032.06, "unit": "RLU"}, {"measurement": "luminescence, Day 0", "setting": "[2]; Table 4, repeated experiment, Day 0, before treatment (baseline)", "result": 1815.26, "unit": "RLU"}, {"measurement": "course of biofilm luminescence (RLU) / metabolic activity over time", "setting": "[2]; over 4 days, result in words", "result": "growth similar to the control"}]}
